Legend:
[1] = tested on: db/db mice; experiment: Blood glucose levels in db/db mice (Example 1); type: in vivo
Experimental: Administration of NT-4/5 and reference substances: Rosiglitazone (3 mg/kg, Sequoia Research Products Ltd., UK), a thiazolidinedione compound for the therapy of type 2 diabetes, was used in the present experiment as a reference. Phosphate buffer saline was used as vehicle in this experiment. NT-4/5 was obtained from Genentech.
(§1) A difference was considered significant for p<0.05.

[2] = tested on: db/db mice; experiment: HbA1c in db/db mice (Example 1); type: in vivo
Experimental: as §1
HbA1c levels were determined using an HbA1c kit (ref. 650262, Beckman Coulter, France) and a Synchron CX4 synchronizer. HbA1c is an indicator for blood glucose control over the last 2-3 months. The normal level of HbA1c in C57BL/6J mouse (determined by measuring 8 normal healthy C57BL/6J mice) was about 3.5%.

[3] = tested on: db/db mice; experiment: Blood triglyceride levels in db/db mice (Example 1); type: in vivo
Experimental: Test animals: 24 female 10-12 weeks old db/db mice (C57BL/Ks J Rj-db/db, Janvier, France), weighing in the target range of 40-50 g, were used in this study. […] Upon receipt at animal facilities, they were housed 4 per cage covered with filtered caps and at least a 5-day acclimation period was observed.
(§2) The mice were divided into three groups of 8 mice each (groups 1-3). Each group was treated with vehicle (PBS) subcutaneously (s.c.), 3 mg/kg Rosiglitazone orally (p.o.), or 20 mg/kg NT-4/5 subcutaneously (s.c.). From day 1 to day 5 (T1-T5) and then from day 8 to day 12 (T8-T12), the mice in groups 2 and 3 were dosed once daily for 5 consecutive days, with a volume of 10 ml/kg.
Collection of samples for analysis: One day before beginning the treatment (T0), non fasted db/db mice were weighed and blood samples were collected through the retro-orbital plexus (about 300 μL/mouse) under isoflurane anesthesia. Similarly, at day 5 (T5), day 12 (T12), day 19 (T19) and day 26 (T26), two hours after the last administration, blood samples were collected through the retro-orbital plexus under isoflurane anesthesia in non fasted mice. […] An aliquot of serum was used for measuring glucose levels, the remaining was frozen until use.
(§3) Analysis of blood samples in db/db mice: Pre- and post dose serum levels of glucose, HbA1c, cholesterol and triglycerides, insulin, and non esterified fatty acids (NEFA), as well as aspirate amino-transferase (AST) and alanine amino-transferase activities (ALT) activities, were determined at different time points, as described further herein. At each time point and for each parameter, a mean % of the effect was calculated according to the following formula: ((T final−T initial)/T initial)*100. Statistical analysis was consistent in a one-way analysis of variance followed by multiple comparisons versus the vehicle group (Dunnett's test) on final values. In case the equal variance test fails, a Kruskall-Wallis one-way analysis of variance on ranks was conducted. A difference was considered significant for p<0.05.

[4] = tested on: db/db mice; experiment: Total blood cholesterol levels in db/db mice (Example 1); type: in vivo
Experimental: as §1
The blood triglyceride level and the total blood cholesterol level were determined with a triglyceride assay kit (ref 445850, Beckman Coutler, France) and a total cholesterol kit (ref 467825, Beckman Coutler, France), respectively, using a Synchron CX4 analyzer.

[5] = tested on: db/db mice; experiment: Serum nonesterified fatty acids (NEFA) in db/db mice (Example 1); type: in vivo
Experimental: as §1
Serum nonesterified fatty acids (NEFA) levels were determined by calorimetric method using a non esterified fatty acids kit (ref. FA 15, Randox, France).

[6] = tested on: db/db mice; experiment: Blood insulin level by ELISA in db/db mice (Example 1); type: in vivo; design: blood insulin level at T5 / blood insulin level at T12 / blood insulin level at T19 / blood insulin level at T26: unit not given here
Experimental: as §1
The blood insulin level was determined by ELISA using an Insulin ELIT Plus kit (ref. INSRAT01-8N, Eurobio, France).

[7] = tested on: db/db mice; experiment: Body weight of db/db mice (Example 1); type: in vivo; settings: for body weight, mean / body weight expressed as % of baseline, mean: NT-4/5 20 mg/kg s.c., Rosiglitazone 3 mg/kg p.o.
Experimental: Throughout the experiment period (T1-T26), daily individual body weights as well as food intake per cage were measured.

[8] = tested on: db/db mice; experiment: Serum transaminase (AST, ALT) activity in db/db mice (Example 1)
Experimental: Test animals: 24 female 10-12 weeks old db/db mice (C57BL/Ks J Rj-db/db, Janvier, France), weighing in the target range of 40-50 g, were used in this study. These mice were housed in a temperature (19.5-24.5° C.) and relative humidity (45-65%) controlled room with a 12-hour light/dark cycle, with ad libitum access to filtered tap-water and irradiated pelleted laboratory chow (SAFE, France) throughout the study. Upon receipt at animal facilities, they were housed 4 per cage covered with filtered caps and at least a 5-day acclimation period was observed.
as §2
Collection of samples for analysis: One day before beginning the treatment (T0), non fasted db/db mice were weighed and blood samples were collected through the retro-orbital plexus (about 300 μL/mouse) under isoflurane anesthesia. Similarly, at day 5 (T5), day 12 (T12), day 19 (T19) and day 26 (T26), two hours after the last administration, blood samples were collected through the retro-orbital plexus under isoflurane anesthesia in non fasted mice.
as §3
Aspartate amino-transferase (AST) and alanine amino-transferase (ALT) activities were determined with an AST kit (ref. 442665, Beckman Coulter, France), an ALT kit (ref. 442620, Beckman Coulter, France), using a Synchron CX4 analyzer.

[9] = day 0, before treatment, NT-4/5 20 mg/kg s.c., Rosiglitazone 3 mg/kg p.o.
[10] = day 5, NT-4/5 20 mg/kg s.c., Rosiglitazone 3 mg/kg p.o.
[11] = day 5 vs day 0, NT-4/5 20 mg/kg s.c., Rosiglitazone 3 mg/kg p.o.
[12] = day 12, NT-4/5 20 mg/kg s.c., Rosiglitazone 3 mg/kg p.o.
[13] = day 12 vs day 0, NT-4/5 20 mg/kg s.c., Rosiglitazone 3 mg/kg p.o.
[14] = day 19 vs day 0, NT-4/5 20 mg/kg s.c., Rosiglitazone 3 mg/kg p.o.
[15] = day 26 vs day 0, NT-4/5 20 mg/kg s.c., Rosiglitazone 3 mg/kg p.o.
[16] = day 26, NT-4/5 20 mg/kg s.c., Rosiglitazone 3 mg/kg p.o.
[17] = day 19, NT-4/5 20 mg/kg s.c., Rosiglitazone 3 mg/kg p.o.

B1: NT-4/5: mature human neurotrophin-4/5 (SEQ ID NO:1), obtained from Genentech or produced in E. coli (protein, listed as Homo sapiens)
chain: GVSETAPASRRGELAVCDAVSGWVTDRRTAVDLRGREVEVLGEVPAAGGSPLRQYFFETRCKADNAEEGGPGAGGGGCRGVDRRHWVSECKAKQSYVRALTADAQGRVGWRWIRIDTACVCTLLSRTGRA
For B1, the “blood glucose levels T0” value [1, 9] was 36.95 mM, the “blood glucose levels T5” value [1, 10] was 15.78 mM and the “blood glucose % effect T5-T0” value [1, 11] was −56.4%. The “blood glucose levels T12” value [1, 12] was 13.56 mM, the “blood glucose % effect T12-T0” value [1, 13] was −62.6% and the “blood glucose levels T19” value ([1]; day 19 (dosing stopped day 12), NT-4/5 20 mg/kg s.c., Rosiglitazone 3 mg/kg p.o.) was 12.65 mM. For the same molecule, the “blood glucose % effect T19-T0” value [1, 14] was −65.2%, the “blood glucose levels T26” value ([1]; day 26 (dosing stopped day 12), NT-4/5 20 mg/kg s.c., Rosiglitazone 3 mg/kg p.o.) was 22.50 mM and the “blood glucose % effect T26-T0” value [1, 15] was −37.9%. The “level of blood glucose lower than that of vehicle treated mice” value ([1]; throughout the rest of the study, 20 mg/kg s.c.) was “at least 50%”, the “HbA1c level decrease at T26” value ([2]; T26 as compared to T0) was 30.4% and the “HbA1c T0” value [2, 9] was 5.81%. For the same molecule, the “HbA1c T12” value [2, 12] was 5.82%, the “HbA1c % effect T12-T0” value [2, 13] was −0.2% and the “HbA1c T26” value [2, 16] was 4.08%. For the same molecule, the “HbA1c % effect T26-T0” value [2, 15] was −30.4%, the “triglycerides levels T0” value [3, 9] was 1.51 mM and the “triglycerides levels T5” value [3, 10] was 0.73 mM. For the same molecule, the “triglycerides % effect T5-T0” value [3, 11] was −48.8%, the “triglycerides levels T12” value [3, 12] was 0.84 mM and the “triglycerides % effect T12-T0” value [3, 13] was −40.9%. For the same molecule, the “triglycerides levels T19” value [3, 17] was 1.07 mM, the “triglycerides % effect T19-T0” value [3, 14] was −28.0% and the “triglycerides levels T26” value [3, 16] was 1.13 mM. For the same molecule, the “triglycerides % effect T26-T0” value [3, 15] was −25.2%, the “blood triglyceride levels relative to normal level” value ([3]; normal level 1.2±0.08 mM in C57BL/6J mice) was “reduced to below normal level” and the “blood cholesterol level decrease” value ([4]; 20 mg/kg s.c., not statistically significant) was 20-30%. The “cholesterol levels T0” value [4, 9] was 3.42 mM, the “cholesterol levels T5” value [4, 10] was 2.85 mM and the “cholesterol % effect T5-T0” value [4, 11] was −16.4%. The “cholesterol levels T12” value [4, 12] was 2.66 mM, the “cholesterol % effect T12-T0” value [4, 13] was −23.7% and the “cholesterol levels T19” value [4, 17] was 2.40 mM. The “cholesterol % effect T19-T0” value [4, 14] was −31.7%, the “cholesterol levels T26” value [4, 16] was 2.67 mM and the “cholesterol % effect T26-T0” value [4, 15] was −23.5%. For the same molecule, the “effect on blood level of NEFA” value ([5]; 20 mg/kg s.c.) was “did not seem to have affected the blood level of NEFA significantly”, the “NEFA levels T0” value [5, 9] was 0.788 mM and the “NEFA levels T5” value [5, 10] was 0.780 mM. For the same molecule, the “NEFA % effect T5-T0” value [5, 11] was −0.1%, the “NEFA levels T12” value [5, 12] was 0.679 mM and the “NEFA % effect T12-T0” value [5, 13] was −8.5%. For the same molecule, the “NEFA levels T19” value [5, 17] was 0.521 mM, the “NEFA % effect T19-T0” value [5, 14] was −30.4% and the “NEFA levels T26” value [5, 16] was 0.411 mM. For the same molecule, the “NEFA % effect T26-T0” value [5, 15] was −44.5%, the “blood insulin level at T5” value ([6]; T5) was 1.84 and the “blood insulin level at T12” value ([6]; T12) was 0.91. The “blood insulin level at T19” value ([6]; T19) was 7.6, the “blood insulin level at T26” value ([6]; T26) was 11.58 and the “insulin levels T0” value [6, 9] was 7.04 nM. For the same molecule, the “insulin levels T5” value [6, 10] was 1.84 nM, the “insulin % effect T5-T0” value [6, 11] was −72.0% and the “insulin levels T12” value [6, 12] was 0.91 nM. For the same molecule, the “insulin % effect T12-T0” value [6, 13] was −84.5%, the “insulin levels T19” value [6, 17] was 7.60 nM and the “insulin % effect T19-T0” value [6, 14] was 17.1%. For the same molecule, the “insulin levels T26” value [6, 16] was 11.58 nM, the “insulin % effect T26-T0” value [6, 15] was 73.1% and the “insulin level relative to normal level” value ([6]; normal about 0.118±0.010 nM) was “not reduced to normal level”. For the same molecule, the “body weight during treatment” value ([7]; 20 mg/kg s.c.) was “gradually lost weight during the treatment”, the “body weight, mean” value ([7]; Day 0) was 41.8 g and the “body weight expressed as % of baseline, mean” value (from here on “body weight expressed as %”) ([7]; Day 1) was 97.8 % of baseline. The “body weight, mean” value ([7]; Day 1) was 40.8 g, the “body weight expressed as %” value ([7]; Day 2) was 95.7 % of baseline and the “body weight, mean” value ([7]; Day 2) was 40.0 g. For the same molecule, the “body weight expressed as %” value ([7]; Day 3) was 94.6 % of baseline, the “body weight, mean” value ([7]; Day 3) was 39.5 g and the “body weight expressed as %” value ([7]; Day 4) was 92.9 % of baseline. The “body weight, mean” value ([7]; Day 4) was 38.8 g, the “body weight expressed as %” value ([7]; Day 5) was 91.6 % of baseline and the “body weight, mean” value ([7]; Day 5) was 38.3 g. The “body weight expressed as %” value ([7]; Day 6) was 88.5 % of baseline, the “body weight, mean” value ([7]; Day 6) was 37.0 g and the “body weight expressed as %” value ([7]; Day 7) was 87.4 % of baseline. For the same molecule, the “body weight, mean” value ([7]; Day 7) was 36.5 g, the “body weight expressed as %” value ([7]; Day 8) was 87.3 % of baseline and the “body weight, mean” value ([7]; Day 8) was 36.5 g. For the same molecule, the “body weight expressed as %” value ([7]; Day 9) was 86.5 % of baseline, the “body weight, mean” value ([7]; Day 9) was 36.6 g and the “body weight expressed as %” value ([7]; Day 10) was 85.4 % of baseline. The “body weight, mean” value ([7]; Day 10) was 36.1 g, the “body weight expressed as %” value ([7]; Day 11) was 84.1 % of baseline and the “body weight, mean” value ([7]; Day 11) was 35.6 g. For the same molecule, the “body weight expressed as %” value ([7]; Day 12) was 83.3 % of baseline, the “body weight, mean” value ([7]; Day 12) was 35.2 g and the “body weight expressed as %” value ([7]; Day 13) was 80.8 % of baseline. For the same molecule, the “body weight, mean” value ([7]; Day 13) was 34.2 g, the “body weight expressed as %” value ([7]; Day 14) was 79.8 % of baseline and the “body weight, mean” value ([7]; Day 14) was 33.7 g. The “body weight expressed as %” value ([7]; Day 15) was 80.1 % of baseline, the “body weight, mean” value ([7]; Day 15) was 33.9 g and the “body weight expressed as %” value ([7]; Day 18) was 83.1 % of baseline. For the same molecule, the “body weight, mean” value ([7]; Day 18) was 35.1 g, the “body weight expressed as %” value ([7]; Day 19) was 84.4 % of baseline and the “body weight, mean” value ([7]; Day 19) was 35.7 g. For the same molecule, the “body weight expressed as %” value ([7]; Day 20) was 84.1 % of baseline, the “body weight, mean” value ([7]; Day 20) was 35.6 g and the “body weight expressed as %” value ([7]; Day 21) was 85.6 % of baseline. For the same molecule, the “body weight, mean” value ([7]; Day 21) was 36.2 g, the “body weight expressed as %” value ([7]; Day 22) was 86.4 % of baseline and the “body weight, mean” value ([7]; Day 22) was 36.5 g. For the same molecule, the “body weight expressed as %” value ([7]; Day 25) was 91.7 % of baseline, the “body weight, mean” value ([7]; Day 25) was 38.8 g and the “body weight expressed as %” value ([7]; Day 26) was 93.1 % of baseline. The “body weight, mean” value ([7]; Day 26) was 39.4 g, the “effect on AST and/or ALT levels, or AST/ALT ratios” value ([8]; 20 mg/kg s.c.) was “did not have significant effect” and the “ALT/AST ratio T0” value [8, 9] was 1.17. The “ALT/AST ratio T5” value [8, 10] was 0.73, the “ALT/AST ratio % effect T5-T0” value [8, 11] was −32.7% and the “ALT/AST ratio T12” value [8, 12] was 0.87. For the same molecule, the “ALT/AST ratio % effect T12-T0” value [8, 13] was −26.6%, the “ALT/AST ratio T19” value [8, 17] was 0.67 and the “ALT/AST ratio % effect T19-T0” value [8, 14] was −45.6%. For the same molecule, the “ALT/AST ratio T26” value [8, 16] was 0.99 and the “ALT/AST ratio % effect T26-T0” value [8, 15] was −17.6%.

From patent US20090203610A1, “METHODS OF TREATING OBESITY OR DIABETES USING NT-4/5” (RINAT NEUROSCIENCE CORPORATION, priority 2004, published 2009)
